Data reported in patent publication US20200354457A1 (Hoffmann-La Roche, published 2020).
Several values for one entry are separate records, joined by “and”; a condition that tells them apart may be missing. Identical values can stand only once. Blank lines part the entries; values can stand above or below the binder they belong to.

Key:
[1] = target: T1, soluble human Lag3-IgG1-Fc with biotinylated C-terminal Avi-tag (human, biotin on the C-terminal Avi-tag); test: A375 MHCII competition ELISA at 3 µg/ml, biotinylated Lag3 250 ng/ml; competitor MHCII on A375 cells
T1 construct: also called LAG3-Fc-avi; biotinylated LAG3-Fc antigen

[2] = target: T1, soluble human Lag3-IgG1-Fc with …; test: A375 MHCII competition ELISA, biotinylated Lag3 250 ng/ml; competitor MHCII on A375 cells
[3] = target: T2, recombinant human LAG3 Fc Chimera Protein (R&D Systems, 2319-L3) (human, UniProt P18627 23-450); test: ELISA, plate coated with human LAG3 Fc chimera
T2 construct: Bought reagent
T2 sequence (looked up): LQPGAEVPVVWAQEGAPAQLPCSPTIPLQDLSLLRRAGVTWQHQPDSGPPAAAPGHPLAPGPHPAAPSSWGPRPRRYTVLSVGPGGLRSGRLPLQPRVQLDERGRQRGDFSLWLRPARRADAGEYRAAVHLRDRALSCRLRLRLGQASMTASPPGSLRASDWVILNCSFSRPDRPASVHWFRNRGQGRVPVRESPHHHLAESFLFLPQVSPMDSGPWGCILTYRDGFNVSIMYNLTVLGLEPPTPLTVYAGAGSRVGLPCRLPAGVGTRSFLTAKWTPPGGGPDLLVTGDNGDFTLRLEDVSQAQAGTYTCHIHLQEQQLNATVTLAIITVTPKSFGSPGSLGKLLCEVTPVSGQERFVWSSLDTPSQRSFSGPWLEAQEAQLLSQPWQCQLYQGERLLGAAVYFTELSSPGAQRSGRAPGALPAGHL

[4] = target: T2, recombinant human LAG3 Fc Chimera …; test: SPR (Biacore), antibody captured by anti-human Fc, human LAG-3 Fc chimera as analyte, 25 C
[5] = target: T3, human LAG3 on recombinant CHO cells (human, UniProt P18627 23-525); test: cell ELISA on CHO cells expressing human LAG3;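 further: bivalent Fc-format binders titrated in threefold steps from 6 µg/mL, incubated with the cells 2 h at 4 °C, bound antibody detected by HRP-coupled anti-human IgG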
T3 construct: whole, on cells; also called Lag3 cells; recombinant CHO cells expressing Lag3
T3 sequence (looked up): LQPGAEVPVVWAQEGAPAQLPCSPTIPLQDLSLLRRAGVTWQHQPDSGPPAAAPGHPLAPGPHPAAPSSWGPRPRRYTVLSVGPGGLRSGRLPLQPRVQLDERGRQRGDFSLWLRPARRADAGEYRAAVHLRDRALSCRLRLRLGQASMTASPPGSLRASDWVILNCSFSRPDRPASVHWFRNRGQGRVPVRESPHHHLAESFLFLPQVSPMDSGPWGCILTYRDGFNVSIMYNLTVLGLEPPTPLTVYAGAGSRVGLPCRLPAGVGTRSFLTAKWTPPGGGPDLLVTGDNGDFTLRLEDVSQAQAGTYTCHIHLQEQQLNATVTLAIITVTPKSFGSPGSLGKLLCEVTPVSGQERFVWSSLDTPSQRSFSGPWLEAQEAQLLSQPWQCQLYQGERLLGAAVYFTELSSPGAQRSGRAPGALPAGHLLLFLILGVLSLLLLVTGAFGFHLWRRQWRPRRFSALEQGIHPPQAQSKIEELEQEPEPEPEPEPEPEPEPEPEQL

[6] = target: T4, biotinylated MCSP antigen (amino acids 1553 to 2184 of matured melanoma-associated chondroitin sulfate … (Homo sapiens (Human), UniProt Q6UVK1 1582-2213, limits assumed, biotin on the C-terminal avi-tag)); test: ELISA, biotinylated MCSP antigen on neutravidin plates, bacterial supernatants, anti-Flag/HRP
T4 construct: The entry may include the leader; also called recombinant MCSP
T4 sequence: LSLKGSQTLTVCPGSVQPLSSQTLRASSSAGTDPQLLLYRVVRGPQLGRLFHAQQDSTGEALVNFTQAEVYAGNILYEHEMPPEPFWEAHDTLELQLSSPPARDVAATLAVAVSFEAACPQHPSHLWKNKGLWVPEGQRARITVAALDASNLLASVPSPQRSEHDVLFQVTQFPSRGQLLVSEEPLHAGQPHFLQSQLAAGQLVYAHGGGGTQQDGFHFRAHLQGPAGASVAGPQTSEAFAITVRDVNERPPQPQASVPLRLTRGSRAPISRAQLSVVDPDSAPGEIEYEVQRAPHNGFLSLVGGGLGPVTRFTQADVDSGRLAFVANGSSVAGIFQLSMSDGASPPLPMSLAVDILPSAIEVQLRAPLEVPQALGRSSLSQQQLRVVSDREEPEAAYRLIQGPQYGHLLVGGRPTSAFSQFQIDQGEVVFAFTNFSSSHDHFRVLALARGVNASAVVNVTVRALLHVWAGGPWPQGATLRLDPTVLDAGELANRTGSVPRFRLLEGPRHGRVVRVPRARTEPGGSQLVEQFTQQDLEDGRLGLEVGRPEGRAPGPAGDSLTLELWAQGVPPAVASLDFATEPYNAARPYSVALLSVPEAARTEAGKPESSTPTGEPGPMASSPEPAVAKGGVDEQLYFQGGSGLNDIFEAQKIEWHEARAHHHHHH

[7] = target: T5, biotinylated DR5-Fc-avi (extracellular domain of Death receptor 5, amino acids 1 to 152, fused to human IgG1 … (biotin on the C-terminal avi-tag)); test: ELISA, biotinylated DR5 antigen on neutravidin plates, bacterial supernatants, anti-Flag/HRP
T5 construct: also called DRS; Death receptor 5 ECD

[8] = target: T6, Lag3 on cynomolgus PBMC/T cells (cynomolgus); test: flow cytometry, non-activated cynomolgus PBMC, 10 µg/ml
T6 construct: whole, on cells

[9] = target: T7, Lag3 on Lag3+ NFAT Jurkat effector cells (Promega #CS194801); test: cell-based or functional assay
[10] = target: T7, Lag3 on Lag3+ NFAT Jurkat effector …; test: cell-based or functional assay; remark: listed apart in the source
[11] = target: T8, murine LAG3-Fc antigen (R&D Systems, 3328-L3-050) (murine, UniProt Q61790 24-442); test: ELISA using murine LAG3-Fc antigen
T8 construct: Bought reagent
T8 sequence (looked up): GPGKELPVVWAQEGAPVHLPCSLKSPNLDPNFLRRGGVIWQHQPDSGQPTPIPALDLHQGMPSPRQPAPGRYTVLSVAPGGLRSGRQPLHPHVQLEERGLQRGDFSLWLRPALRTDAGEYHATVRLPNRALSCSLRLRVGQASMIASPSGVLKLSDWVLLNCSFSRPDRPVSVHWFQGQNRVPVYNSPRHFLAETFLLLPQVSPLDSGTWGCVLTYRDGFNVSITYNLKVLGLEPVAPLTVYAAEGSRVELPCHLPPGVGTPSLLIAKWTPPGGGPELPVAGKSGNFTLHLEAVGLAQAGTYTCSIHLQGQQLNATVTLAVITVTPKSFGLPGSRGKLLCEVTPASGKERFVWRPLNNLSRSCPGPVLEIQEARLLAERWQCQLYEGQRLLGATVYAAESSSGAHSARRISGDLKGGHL

[12] = target: T6, Lag3 on cynomolgus PBMC/T cells; test: flow cytometry, CD3/CD28-activated cynomolgus PBMC, 10 µg/ml
[13] = target: T2, recombinant human LAG3 Fc Chimera …; test: SPR (Biacore), aVH-Fc captured by anti-human Fc, human LAG-3 Fc chimera as analyte, 25 C

B1: control antibody MDX25F7 (antibody, V domains shown)
VH: QVQLQQWGAGLLKPSETLSLTCAVYGGSFSDYYWNWIRQPPGKGLEWIGEINHNGNTNSNPSLKSRVTLSLDTSKNQFSLKLRSVTAADTAVYYCAFGYSDYEYNWFDPWGQGTLVTVSS
VL: EIVLTQSPATLSLSPGERATLSCRASQSISSYLAWYQQKPGQAPRLLIYDASNRATGIPARFSGSGSGTDFTLTISSLEPEDFAVYYCQQRSNWPLTFGQGTNLEIK
- % Inhibition [1]: 90.4%
- IC50 [2]: 0.127 µg/mL and 0.8 nM
- EC50 [3]: 0.0031 µg/mL and 0.02 nM
- OD max [3]: 3.39 OD
- koff [4]: 0.00039 s⁻¹
- t1/2 [4]: 30 min
- OD max [5]: 2.06 OD

B3: SEQ ID NO 22 (VHH)
VHH: EVQLVESGGGLVQPGGSLRLSCAASGFNIKDTYIGWVRRAPGKGEELVARIYPTNGYTRYADSVKGRFTISADTSKNTAYLQMNSLRAEDTAVYYCAKYVRYFDYWGQGTLVTVSS
notes: Tested as bacterial supernatant; the range 21-28 may alternate DNA and protein entries
- binding result [7]: binds

B4: SEQ ID NO 28 (VHH)
VHH: EVQLVESGGGLVQPGGSLRLSCAASGFNIKDTYIGWVRRAPGKGEELVARIYPTNGYTRYADSVKGRFTISADTSKNTAYLQMNSLRAEDTAVYYCAKRSHYSYFDYWGQGTLVTVSS
notes: as for B3
- binding result [7]: binds

B7: SEQ ID NO 59 (VHH)
VHH: EVQLVESGGGLVQPGGSLRLSCAASSFNIKDTYIGWVRRAPGKGTELVADIYCSEGSTRYADSVKGRFTISCDTSKNTAYLQMNSLRAEDTAVYYCAAVSDYVVFYYWGQGTTVTVSS
notes: is one of clones 3, 25, 44, 57.1; also called MCSP-specific aVH
- binding result [6]: binds

B8: SEQ ID NO 24 (VHH)
VHH: EVQLVESGGGLVQPGGSLRLSCAASGFNIKDTYIGWVRRAPGKGEELVARIYPTNGYTRYADSVKGRFTISADTSKNTAYLQMNSLRAEDTAVYYCAKYYPRTYLDFDYWGQGTLVTVSS
notes: as for B3
- binding result [7]: binds

Second part, the binder after the results:

- binding result [6]: binds
B2: SEQ ID NO 61 (VHH)
VHH: EVQLVESGGGLVQPGGSLRLSCAASSFNIKDTYIGWVRRAPGKGTELVAGIYCEAGITRYADSVKGRFTISCDTSKNTAYLQMNSLRAEDTAVYYCAGKGIGNYFDYWGQGTTVTVSS
notes: as for B7

- % Inhibition [1]: 96.3%
- Percentage of Lag3 positive cells [8]: 24.4%
- EC50 of restoration of the NFAT luciferase signal (NFAT Lag3 reporter assay: Lag3+ Jurkat, Raji cells, SED) [9]: 0.65 µg/mL
- IC50 [2]: 0.0408 µg/mL and 0.5 nM
- EC50 [3]: 0.0132 µg/mL and 0.2 nM
- OD max [3]: 1.9 OD
- IC50 for near-complete reduction of luciferase activity (modified NFAT Lag3 reporter assay, Lag3+ Jurkat cells alone) [10]: 0.038 µg/mL
- binding result [11]: no binding
- Percentage of Lag3 positive cells [12]: 54.1%
- EC50 [5]: 0.0173 µg/mL and 0.2 nM
- OD max [5]: 1.2 OD
- koff [13]: 2e-05 s⁻¹
- t1/2 [13]: 589 min
B5: bivalent P9G1 aVH-Fc (Fc fusion)
chain: EVQLVESGGGLVQPGGSLRLSCAASGFNIKDTCIGWVRRAPGKGTELVAEICQDIGYTRYADSVKGRFTISADTSKNTAYLQMNSLRAEDTAVYYCAGEEGATNFKYWGQGTTVTVSSGGGGSGGGGSDKTHTCPPCPAPEAAGGPSVFLFPPKPKDTLMISRTPEVTCVVVDVSHEDPEVKFNWYVDGVEVHNAKTKPREEQYNSTYRVVSVLTVLHQDWLNGKEYKCKVSNKALGAPIEKTISKAKGQPREPQVYTLPPSRDELTKNQVSLTCLVKGFYPSDIAVEWESNGQPENNYKTTPPVLDSDGSFFLYSKLTVDKSRWQQGNVFSCSVMHEALHNHYTQKSLSLSPGK

- % Inhibition [1]: 93.4%
- Percentage of Lag3 positive cells [8]: 16.9%
- EC50 of restoration of the NFAT luciferase signal (NFAT Lag3 reporter assay: Lag3+ Jurkat, Raji cells, SED) [9]: 4.14 µg/mL
- IC50 [2]: 0.0933 µg/mL and 1.2 nM
- EC50 [3]: 0.113 µg/mL and 1.5 nM
- OD max [3]: 0.9 OD
- IC50 for near-complete reduction of luciferase activity (modified NFAT Lag3 reporter assay, Lag3+ Jurkat cells alone) [10]: 0.104 µg/mL
- binding result [11]: no binding
- Percentage of Lag3 positive cells [12]: 61.7%
- EC50 [5]: 0.029 µg/mL and 0.4 nM
- OD max [5]: 1.2 OD
- koff [13]: 0.00011 s⁻¹
- t1/2 [13]: 102 min
B6: bivalent P10D1 aVH-Fc (Fc fusion)
chain: EVQLVESGGGLVQPGGSLRLSCAASGFSIKDTCIAWVRRAPGKGTELVAEICEDIGYTRYADSVKGRFTISADTSKNTAYLQMNSLRAEDTAVYYCAAKEAGVGFDYWGQGTTVTVSSGGGGSGGGGSDKTHTCPPCPAPEAAGGPSVFLFPPKPKDTLMISRTPEVTCVVVDVSHEDPEVKFNWYVDGVEVHNAKTKPREEQYNSTYRVVSVLTVLHQDWLNGKEYKCKVSNKALGAPIEKTISKAKGQPREPQVYTLPPSRDELTKNQVSLTCLVKGFYPSDIAVEWESNGQPENNYKTTPPVLDSDGSFFLYSKLTVDKSRWQQGNVFSCSVMHEALHNHYTQKSLSLSPGK
